In assay [1] the target is GluA2-γ2_(FRET) (GluA2_(FRET) fused through a GGS linker to full-length mouse TARPγ2) (rat | mouse) (UniProt O88602). Put plainly: FRET or BRET; single-molecule FRET between Alexa-555 and Alexa-647 on Cys467 of two subunits; receptors from detergent-solubilised HEK293T cells held on the slide by antibody (in situ immunoprecipitation); 1 mM Glu + 100 µM CTZ.
For assay [2] the target is unchanged. Put plainly: FRET or BRET; single-molecule FRET between Alexa-555 and Alexa-647 on Cys467 of two subunits; receptors from detergent-solubilised HEK293T cells held on the slide by antibody (in situ immunoprecipitation); 1 mM Glu + 100 µM GYKI-52466.

“GluA2-γ2_(FRET) (GluA2_(FRET) fused through a GGS linker to full-length mouse TARPγ2) (from UniProt O88602 1-323) (receptor)”: the FRET efficiency (highest-occurring state, with CTZ) in assay [1] was 0.93. Moreover, the FRET efficiency (highest-occurring state, with GYKI-52466) in assay [2] stood at 0.82.

The values are drawn from paper PMC11563869.
